Source: US20110054149A1 (published 2011)

T1: GST-human NOGO-A56 (human, UniProt Q9NQC3 586-785)
T1 construct: also called hNOGO; recombinant human NOGO; not shown: Glutathione S-transferase (GST) tag encoded by vector pGEX-6P1, N-terminal to the NOGO-A fragment; the tag and linker se
T1 sequence: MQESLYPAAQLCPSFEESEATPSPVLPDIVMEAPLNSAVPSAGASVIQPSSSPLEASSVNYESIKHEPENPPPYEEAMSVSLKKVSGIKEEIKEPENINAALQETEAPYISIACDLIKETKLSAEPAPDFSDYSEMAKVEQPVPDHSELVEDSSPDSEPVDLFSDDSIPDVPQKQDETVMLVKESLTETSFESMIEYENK


Columns and labels:
GST-human NOGO-A56 [1] = molecular target: T1, GST-human NOGO-A56; assay: SPR (Biacore 3000), GST-human NOGO-A56 on CM5 chip, antibody as analyte; single experiment
Procedure: (§1) The binding kinetics of the anti-NOGO monoclonal antibody (mAb) to recombinantly expressed human NOGO-A (GST-human NOGO-A56) was analysed using the Biacore3000 biosensor. The hNOGO-A chip was prepared as follows:
(§2) hNOGO (GST-human NOGO-A56) was immobilised to a CM5 chip by primary amine coupling using the Biacore Wizard program designed for targeted immobilisation levels. The CM5 sensor surface was activated by passing a solution of 50 mM N-hydroxy-succinimide (NHS) and 200 mM N-ethyl-N′-dimethylaminopropyl […] (EDC). Then hNOGO in sodium acetate buffer, pH5.0 or pH 4.5, was passed over the chip and immobilised. After immobilisation was complete any still activated esters were blocked by an injection of 1M ethanolamine hydrochloride, pH8.5.
(§3) The anti-NOGO mAbs were diluted down in HBS-EP (10 mM HEPES, pH 7.4, 150 mM NaCl, 3 mM EDTA, and 0.005% P-20 surfactant) and binding studies were carried out at range of defined antibody concentrations. All runs were referenced against a blanked sensor surface (one that had been activated and blocked as described earlier but had no addition of ligand). Analysis of binding was carried out using the BIAevaluation kinetic analysis software version 4.1. Biacore analysis of other antibodies of the invention essentially followed the same protocol as described herein.

GST-human NOGO-A56 [2] = molecular target: T1, GST-human NOGO-A56; assay: SPR (Biacore 3000), GST-human NOGO-A56 amine-coupled to CM5 chip, antibody as analyte; mean (SD) of four experiments
Procedure: as §1, §2, §3

GST-human NOGO-A56 [3] = molecular target: T1, GST-human NOGO-A56; assay: SPR off-rate ranking (Biacore), CHO-K1 transfection supernatant over GST-human NOGO-A56 chip; mean (SD) of three experiments
Procedure: as §2
(§4) The hNOGO chip was prepared as for kinetic analysis. Cell supernatants where taken directly from transient transfections of CHO—K1 cells. These were passed directly over the sensor surface and the interaction measured. A mock transfected cell supernatant was used for double referencing to remove any artefacts due to the tissue culture media. All runs were referenced against a blanked sensor surface (one that had been activated and blocked as described earlier but had no addition of ligand). Analysis of binding was carried out using the BIAevaluation kinetic analysis software version 4.1.

GST-human NOGO-A56 [4] = molecular target: T1, GST-human NOGO-A56; assay: SPR off-rate ranking (Biacore), CHO-K1 transfection supernatant over GST-human NOGO-A56 chip; mean (SD) of two experiments
Procedure: as §2, §4

GST-human NOGO-A56 [5] = molecular target: T1, GST-human NOGO-A56; assay: SPR (Biacore 3000), GST-human NOGO-A56 on CM5 chip, antibody as analyte; single experiment; remark: listed apart in the source
Procedure: as §1, §2, §3

GST-human NOGO-A56 [6] = molecular target: T1, GST-human NOGO-A56; assay: SPR off-rate ranking (Biacore), CHO-K1 transfection supernatant over GST-human NOGO-A56 chip; single experiment
Procedure: as §2, §4

GST-human NOGO-A56 [7] = molecular target: T1, GST-human NOGO-A56; assay: SPR (Biacore 3000), GST-human NOGO-A56 on CM5 chip, antibody as analyte; mean (SD) of two experiments
Procedure: as §1, §2, §3

GST-human NOGO-A56 [8] = molecular target: T1, GST-human NOGO-A56; assay: SPR (BiaCore kinetic analysis), told in the summary section

Row | koff (GST-human NOGO-A56 [1]) | kon (GST-human NOGO-A56 [1]) | Kd (GST-human NOGO-A56 [2]) | koff (GST-human NOGO-A56 [2]) | kon (GST-human NOGO-A56 [2]) | koff (GST-human NOGO-A56 [3]) | Kd (GST-human NOGO-A56 [1]) | koff (GST-human NOGO-A56 [6]) | Binder | also measured
1 | 0.0284 s⁻¹ | 1.33e+06 M⁻¹ s⁻¹ | 18.6 nM | 0.0314 s⁻¹ | 1.73e+06 M⁻¹ s⁻¹ | 0.0403 s⁻¹ |  |  | H1L11 (antibody, human IgG1, kappa, V domains shown, human gamma-1 mutated constant region, human kappa) VH: QVQLVQSGAEVKKPGASVKVSCKASGYTFTSYWMHWVRQAPGQGLEWMGNINPSNGGTNYNEKFKSRVTMTRDTSTSTVYMELSSLRSEDTAVYYCELGQGYWGQGTLVTVSS VL: DIVITQSPLSLPVTLGQPASISCRSSKSLLYKDGKTYLNWFQQRPGQSPQLLIYLMSTRASGVPDRFSGGGSGTDFTLKISRVEAEDVGVYYCQQLVEYPLTFGQGTKLEIKR | 
2 |  |  | 1.33 nM | 0.00552 s⁻¹ | 4.18e+06 M⁻¹ s⁻¹ | 0.00609 s⁻¹ |  |  | H16L18 (antibody, human IgG1, kappa, V domains shown, Humanised 2A10; human gamma-1 mutated constant region, human kappa; also called H16L18 FL) VH: QVQLVQSGAEVKKPGASVKVSCKASGYTFTSYWMHWVKQRPGQGLEWIGNINPSNGGTNYNEKFKSKATLTVDKSTSTAYMELSSLRSEDTAVYYCELGQGYWGQGTLVTVSS VL: DIVMTQDPLSNPVTLGQPVSISCRSSKSLLYKDGKTYLNWFLQRPGQSPQLLIYLMSTRASGVSDRFSGSGSGTDFTLKISRVEAEDVGVYYCQQLVEYPLTFGQGTKLEIKR | 
3 |  |  | 1.62 nM | 0.00586 s⁻¹ | 3.64e+06 M⁻¹ s⁻¹ |  |  |  | H18L16 (antibody, human IgG1, kappa, V domains shown, Humanised 2A10; human gamma-1 mutated constant region, human kappa; also called H18L16 FL) VH: QVQLVQSGAEVVKPGASVKLSCKASGYTFTSYWMHWVKQRPGQGLEWIGNINPSNGGTNYNEKFKSKATLTVDKSSSTAYMELSSLRSEDSAVYYCELGQGYWGQGTLVTVSS VL: DIVMTQSPLSNPVTLGQPVSISCRSSKSLLYKDGKTYLNWFLQRPGQSPQLLIYLMSTRASGVPDRFSGGGSGTDFTLKISRVEAEDVGVYYCQQLVEYPLTFGQGTKLEIKR | koff (GST-human NOGO-A56 [4]): 0.00687 s⁻¹
4 | 0.013 s⁻¹ | 1.77e+06 M⁻¹ s⁻¹ | 7.68 nM | 0.0137 s⁻¹ | 1.82e+06 M⁻¹ s⁻¹ | 0.0173 s⁻¹ | 7.3 nM |  | H6L13 (antibody, human IgG1, kappa, V domains shown, Humanised 2A10; human gamma-1 mutated constant region, human kappa; also called H6L13 FL) VH: QVQLVQSGAEVKKPGASVKVSCKASGYTFTSYWMHWVRQAPGQGLEWIGNINPSNGGTNYNEKFKSRATMTRDTSTSTAYMELSSLRSEDTAVYYCELGQGYWGQGTLVTVSS VL: DIVMTQSPLSLPVTLGQPASISCRSSKSLLYKDGKTYLNWFQQRPGQSPQLLIYLMSTRASGVPDRFSGGGSGTDFTLKISRVEAEDVGVYYCQQLVEYPLTFGQGTKLEIKR | Kd (GST-human NOGO-A56 [5]): 7.9 nM; koff (GST-human NOGO-A56 [5]): 0.0233 s⁻¹; kon (GST-human NOGO-A56 [5]): 2.95e+06 M⁻¹ s⁻¹
5 | 0.00869 s⁻¹ | 2.41e+06 M⁻¹ s⁻¹ |  |  |  |  | 3.6 nM | 0.00835 s⁻¹ | H14L18 (antibody, human IgG1, kappa, V domains shown, Humanised 2A10; human gamma-1 mutated constant region, human kappa) VH: QVQLVQSGAEVVKPGASVKLSCKASGYTFTSYWMHWVKQAPGQGLEWIGNINPSNGGTNYNEKFKSRATLTRDTSTSTAYMELSSLRSEDTAVYYCELGQGYWGQGTLVTVSS VL: DIVMTQDPLSNPVTLGQPVSISCRSSKSLLYKDGKTYLNWFLQRPGQSPQLLIYLMSTRASGVSDRFSGSGSGTDFTLKISRVEAEDVGVYYCQQLVEYPLTFGQGTKLEIKR | 
6 | 0.00739 s⁻¹ | 2.05e+06 M⁻¹ s⁻¹ |  |  |  |  | 3.6 nM | 0.0089 s⁻¹ | H14L16 (antibody, human IgG1, kappa, V domains shown, Humanised 2A10; human gamma-1 mutated constant region, human kappa) VH: QVQLVQSGAEVVKPGASVKLSCKASGYTFTSYWMHWVKQAPGQGLEWIGNINPSNGGTNYNEKFKSRATLTRDTSTSTAYMELSSLRSEDTAVYYCELGQGYWGQGTLVTVSS VL: DIVMTQSPLSNPVTLGQPVSISCRSSKSLLYKDGKTYLNWFLQRPGQSPQLLIYLMSTRASGVPDRFSGGGSGTDFTLKISRVEAEDVGVYYCQQLVEYPLTFGQGTKLEIKR | 
7 |  |  |  |  |  |  |  | 0.0058 s⁻¹ | H18L18 (antibody, human IgG1, kappa, V domains shown, Humanised 2A10; tested as CHO-K1 transfection supernatant; Human gamma-1 mutated constant region, human kappa) VH: QVQLVQSGAEVVKPGASVKLSCKASGYTFTSYWMHWVKQRPGQGLEWIGNINPSNGGTNYNEKFKSKATLTVDKSSSTAYMELSSLRSEDSAVYYCELGQGYWGQGTLVTVSS VL: DIVMTQDPLSNPVTLGQPVSISCRSSKSLLYKDGKTYLNWFLQRPGQSPQLLIYLMSTRASGVSDRFSGSGSGTDFTLKISRVEAEDVGVYYCQQLVEYPLTFGQGTKLEIKR | 
8 |  |  |  |  |  |  |  | 0.00907 s⁻¹ | H18L13 (antibody, human IgG1, kappa, V domains shown, Humanised 2A10; tested as CHO-K1 transfection supernatant; Human gamma-1 mutated constant region, human kappa) VH: QVQLVQSGAEVVKPGASVKLSCKASGYTFTSYWMHWVKQRPGQGLEWIGNINPSNGGTNYNEKFKSKATLTVDKSSSTAYMELSSLRSEDSAVYYCELGQGYWGQGTLVTVSS VL: DIVMTQSPLSLPVTLGQPASISCRSSKSLLYKDGKTYLNWFQQRPGQSPQLLIYLMSTRASGVPDRFSGGGSGTDFTLKISRVEAEDVGVYYCQQLVEYPLTFGQGTKLEIKR | 
9 |  |  |  |  |  |  |  | 0.00931 s⁻¹ | H17L13 (antibody, human IgG1, kappa, Humanised 2A10; tested as CHO-K1 transfection supernatant; Human gamma-1 mutated constant region, human kappa) heavy: not shown light: DIVMTQSPLSLPVTLGQPASISCRSSKSLLYKDGKTYLNWFQQRPGQSPQLLIYLMSTRASGVPDRFSGGGSGTDFTLKISRVEAEDVGVYYCQQLVEYPLTFGQGTKLEIKRTVAAPSVFIFPPSDEQLKSGTASVVCLLNNFYPREAKVQWKVDNALQSGNSQESVTEQDSKDSTYSLSSTLTLSKADYEKHKVYACEVTHQGLSSPVTKSFNRGEC | 
10 | 0.00569 s⁻¹ | 5.47e+06 M⁻¹ s⁻¹ | 1.26 nM | 0.00554 s⁻¹ | 4.37e+06 M⁻¹ s⁻¹ | 0.00664 s⁻¹ | 1 nM |  | H16L16 (antibody, human IgG1, kappa, Humanised 2A10; human gamma-1 mutated constant region, human kappa; also called H16L16 FL) heavy: not shown light: DIVMTQSPLSNPVTLGQPVSISCRSSKSLLYKDGKTYLNWFLQRPGQSPQLLIYLMSTRASGVPDRFSGGGSGTDFTLKISRVEAEDVGVYYCQQLVEYPLTFGQGTKLEIKRTVAAPSVFIFPPSDEQLKSGTASVVCLLNNFYPREAKVQWKVDNALQSGNSQESVTEQDSKDSTYSLSSTLTLSKADYEKHKVYACEVTHQGLSSPVTKSFNRGEC | 
11 | 0.00412 s⁻¹ | 2.62e+06 M⁻¹ s⁻¹ | 1.41 nM | 0.00378 s⁻¹ | 2.7e+06 M⁻¹ s⁻¹ |  | 1.6 nM |  | HcLc (chimera of 2A10: murine 2A10 VH and VL with human IgG constant regions) (antibody, V domains shown, also called 2A10 chimeric antibody; the chimera) VH: QVQLQQPGTELVKPGASVKLSCKASGYTFTSYWMHWVKQRPGQGLEWIGNINPSNGGTNYNEKFKSKATLTVDKSSSTAYMQLSSLTSEDSAVYYCELGQGYWGQGTLVTVSS VL: DIVITQDELSNPVTSGESVSISCRSSKSLLYKDGKTYLNWFLQRPGQSPQLLIYLMSTRASGVSDRFSGSGSGTDFTLEISRVKAEDVGVYYCQQLVEYPLTFGAGTKLELKR | Kd (GST-human NOGO-A56 [7]): 0.995 nM; koff (GST-human NOGO-A56 [7]): 0.00346 s⁻¹; kon (GST-human NOGO-A56 [7]): 3.52e+06 M⁻¹ s⁻¹; koff (GST-human NOGO-A56 [4]): 0.00376 s⁻¹
12 |  |  |  |  |  |  |  |  | H6Lc (antibody, human IgG1, kappa, V domains shown, Humanised heavy chain H6 paired with chimeric light chain Lc; For the light chain start see the note on HcLc) VH: QVQLVQSGAEVKKPGASVKVSCKASGYTFTSYWMHWVRQAPGQGLEWIGNINPSNGGTNYNEKFKSRATMTRDTSTSTAYMELSSLRSEDTAVYYCELGQGYWGQGTLVTVSS VL: DIVITQDELSNPVTSGESVSISCRSSKSLLYKDGKTYLNWFLQRPGQSPQLLIYLMSTRASGVSDRFSGSGSGTDFTLEISRVKAEDVGVYYCQQLVEYPLTFGAGTKLELKR | Kd (GST-human NOGO-A56 [7]): 2.21 nM; koff (GST-human NOGO-A56 [7]): 0.00284 s⁻¹; kon (GST-human NOGO-A56 [7]): 2.17e+06 M⁻¹ s⁻¹
13 |  |  |  |  |  |  |  |  | murine monoclonal antibody 2A10 (antibody, V domains shown, Murine antibody; also called donor antibody) VH: QVQLQQPGTELVKPGASVKLSCKASGYTFTSYWMHWVKQRPGQGLEWIGNINPSNGGTNYNEKFKSKATLTVDKSSSTAYMQLSSLTSEDSAVYYCELGQGYWGQGTTLTVSS VL: DIVITQDELSNPVTSGESVSISCRSSKSLLYKDGKTYLNWFLQRPGQSPQLLIYLMSTRASGVSDRFSGSGSGTDFTLEISRVKAEDVGVYYCQQLVEYPLTFGAGTKLELK | Kd (GST-human NOGO-A56 [8]): ~1 nM
